Results from patent US20140363428A1 (Chugai, published 2014).
One block for each binder: values may come before it.

Legend:
[1] = molecular target: T1, biotinylated GPC3 peptide (chemically-synthetized peptide having a human glypican 3 protein-derived sequence, … (human, C-terminal Lys is biotinylated)); experiment: SPR (Biacore T200), capture of human IgE on Sensor chip SA carrying the biotinylated GPC3 peptide, 37 degrees C
T1 construct: Synthetic peptide immobilized on Sensor chip SA through biotin-streptavidin
T1 peptide: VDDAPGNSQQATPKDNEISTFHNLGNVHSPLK

[2] = molecular target: T2, soluble human FcRn (heterodimer of FcRn alpha chain and beta2-microglobulin) (human, UniProt P55899 24-297; P61769 21-119); experiment: SPR (Biacore), hFcRn, measured in multiplicates; n=12
T2 construct: Signal regions are part of the expressed constructs; also called hFcRn

[3] = molecular target: T2, soluble human FcRn (heterodimer of FcRn …); experiment: SPR (Biacore), hFcRn, measured in multiplicates; n=7
soluble human FcRn [4] = molecular target: T3, soluble human FcRn (human, UniProt P55899 24-297; P61769 21-119); experiment: SPR (Biacore), pH 6.0; pH 6.0 (acidic pH, not neutral pH)
T3 construct: Heterodimer of alpha chain and beta2-microglobulin; also called hFcRn

soluble human FcRn [5] = molecular target: T3, soluble human FcRn; experiment: SPR (Biacore), pH 6.0
soluble human FcRn [6] = molecular target: T3, soluble human FcRn; experiment: SPR (Biacore), pH 6.0; Table 26 series (4-5), a different experiment from Table 25; pH 6.0
soluble human FcRn [7] = molecular target: T3, soluble human FcRn; experiment: SPR (Biacore), pH 7.0
soluble human FcRn [8] = molecular target: T3, soluble human FcRn; experiment: SPR (Biacore), pH 7.0; remark: listed apart in the source
human IgE [9] = molecular target: T4, human IgE (human); experiment: SPR Biacore T200, 37 C; pH 5.8, 1.2 mM Ca
T4 construct: Recombinant antigen; variable region derived from an anti-human glypican3 antibody; also called hIgE
Experimental: (§1) Human IgE was immobilized onto the chip by injecting it at an appropriate concentration so as to be trapped by the biotinylated GPC3 peptide. […] Then, 10 mmol/L glycine-HCl (pH 1.5) was injected to regenerate the sensor chip. The interaction was always measured at 37 degrees C. The measurement result was analyzed by curve fitting using Biacore T200 Evaluation Software (GE Healthcare) to calculate the association rate constant ka (1/Ms) and dissociation rate constant kd (1/s). The dissociation constant KD (M) was calculated from the above-described constants.

human IgE [10] = molecular target: T4, human IgE; experiment: SPR Biacore T200, 37 C; pH 5.8, 3 microM Ca
Experimental: as §1

human IgE [11] = molecular target: T4, human IgE; experiment: SPR Biacore T200, 37 C; ratio of KD, pH dependency
Experimental: as §1

human IgE [12] = molecular target: T4, human IgE; experiment: SPR Biacore T200, 37 C; ratio of KD, pH/Ca dependency
Experimental: as §1

human IgE [13] = molecular target: T4, human IgE; experiment: SPR Biacore T200, 37 C, hIgE captured via biotinylated GPC3 peptide, Ab analyte; pH 7.4, 1.2 mM Ca
Experimental: as §1

B2: Fv-4-F11 (antibody, human IgG1, kappa)
heavy: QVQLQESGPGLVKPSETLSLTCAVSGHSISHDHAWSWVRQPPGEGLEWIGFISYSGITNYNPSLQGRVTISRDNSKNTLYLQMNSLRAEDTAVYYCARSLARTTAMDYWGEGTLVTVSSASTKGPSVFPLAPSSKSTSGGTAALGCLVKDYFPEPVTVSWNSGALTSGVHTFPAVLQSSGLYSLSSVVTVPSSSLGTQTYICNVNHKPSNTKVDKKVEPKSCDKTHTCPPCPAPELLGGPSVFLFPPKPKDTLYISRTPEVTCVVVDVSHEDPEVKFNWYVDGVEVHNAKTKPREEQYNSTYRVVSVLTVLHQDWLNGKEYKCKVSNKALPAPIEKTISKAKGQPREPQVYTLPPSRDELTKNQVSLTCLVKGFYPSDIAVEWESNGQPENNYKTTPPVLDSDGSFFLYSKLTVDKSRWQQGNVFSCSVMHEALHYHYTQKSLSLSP
light: DIQMTQSPSSLSASVGDSVTITCQASTDISSHLNWYQQKPGKAPELLIYYGSHLLSGVPSRFSGSGSGTDFTFTISSLEAEDAATYYCGQGNRLPYTFGQGTKVEIERTVAAPSVFIFPPSDEQLKSGTASVVCLLNNFYPREAKVQWKVDNALQSGNSQESVTEQDSKDSTYSLSSTLTLSKADYEKHKVYACEVTHQGLSSPVTKSFNRGEC
notes: VH3-F11 (M252Y/N434Y) and VL3-CK
- Kd [2]: 310 nM

B4: Fv-4-YTE (antibody, human IgG1, kappa)
heavy: QVQLQESGPGLVKPSETLSLTCAVSGHSISHDHAWSWVRQPPGEGLEWIGFISYSGITNYNPSLQGRVTISRDNSKNTLYLQMNSLRAEDTAVYYCARSLARTTAMDYWGEGTLVTVSSASTKGPSVFPLAPSSKSTSGGTAALGCLVKDYFPEPVTVSWNSGALTSGVHTFPAVLQSSGLYSLSSVVTVPSSSLGTQTYICNVNHKPSNTKVDKKVEPKSCDKTHTCPPCPAPELLGGPSVFLFPPKPKDTLYITREPEVTCVVVDVSHEDPEVKFNWYVDGVEVHNAKTKPREEQYNSTYRVVSVLTVLHQDWLNGKEYKCKVSNKALPAPIEKTISKAKGQPREPQVYTLPPSRDELTKNQVSLTCLVKGFYPSDIAVEWESNGQPENNYKTTPPVLDSDGSFFLYSKLTVDKSRWQQGNVFSCSVMHEALHNHYTQKSLSLSP
light: DIQMTQSPSSLSASVGDSVTITCQASTDISSHLNWYQQKPGKAPELLIYYGSHLLSGVPSRFSGSGSGTDFTFTISSLEAEDAATYYCGQGNRLPYTFGQGTKVEIERTVAAPSVFIFPPSDEQLKSGTASVVCLLNNFYPREAKVQWKVDNALQSGNSQESVTEQDSKDSTYSLSSTLTLSKADYEKHKVYACEVTHQGLSSPVTKSFNRGEC
- Kd (soluble human FcRn [4]): 210 nM

B6: Fv-4-F890 (antibody, human IgG1, kappa)
heavy: QVQLQESGPGLVKPSETLSLTCAVSGHSISHDHAWSWVRQPPGEGLEWIGFISYSGITNYNPSLQGRVTISRDNSKNTLYLQMNSLRAEDTAVYYCARSLARTTAMDYWGEGTLVTVSSASTKGPSVFPLAPSSKSTSGGTAALGCLVKDYFPEPVTVSWNSGALTSGVHTFPAVLQSSGLYSLSSVVTVPSSSLGTQTYICNVNHKPSNTKVDKKVEPKSCDKTHTCPPCPAPELLGGPSVFLFPPKPKDTLYISRTPEVTCVVVDVSHEDPEVKFNWYVDGVEVHNAKTKPREEQYNSTYRVVSVLTVLHQDWLNGKEYKCKVSNKALPAPIEKTISKAKGQPREPQVYTLPPSRDELTKNQVSLTCLVKGFYPSDIAVEWESNGQPENNYKTTPPVLDSDGSFFLYSKLTVDKSRWQQGNVFSCSVMHEALHYHVTQKSLSLSP
light: DIQMTQSPSSLSASVGDSVTITCQASTDISSHLNWYQQKPGKAPELLIYYGSHLLSGVPSRFSGSGSGTDFTFTISSLEAEDAATYYCGQGNRLPYTFGQGTKVEIERTVAAPSVFIFPPSDEQLKSGTASVVCLLNNFYPREAKVQWKVDNALQSGNSQESVTEQDSKDSTYSLSSTLTLSKADYEKHKVYACEVTHQGLSSPVTKSFNRGEC
notes: VH3-F890 (M252Y/N434Y/Y436V) and VL3-CK; also called Fv-4-890
- Kd [2]: 110 nM

B8: clone 278 (antibody, human IgG1, kappa, V domains shown)
VH: QSLEESGGRLVTPGTPLTLTCTASGFSLSSYHMSWVRQAPGKGLEWIGVINSAGNTYYASWAKGRFTVSKTSTTVDLNLTSLTTEDTATYFCARYVFSSGSHDIWGPGTLVTVSS
VL: AYDMTQTPASVEVAVGGTVTIKCQASQSIGSWLAWYQQKPGQPPKELIYGTSTLESGVPSRFIGSGSGTEFTLTISGVECADAATYYCQQGYSEDNIDNAFGGGTEVVVKR
notes: human IgG1 heavy chain constant region and human light chain constant region
- Kd (human IgE [9]): 2000 nM
- koff (human IgE [9]): 0.23 s⁻¹
- kon (human IgE [9]): 120000 M⁻¹ s⁻¹
- Kd (human IgE [10]): 3900 nM
- koff (human IgE [10]): 0.24 s⁻¹
- kon (human IgE [10]): 62000 M⁻¹ s⁻¹
- KD (pH 5.8, 1.2 mM Ca)/KD (pH 7.4, 1.2 mM Ca) (human IgE [11]): 842
- KD (pH 5.8, 3 microM Ca)/KD (pH 7.4, 1.2 mM Ca) (human IgE [12]): 1640
- Kd (human IgE [13]): 2.4 nM
- koff (human IgE [13]): 0.0036 s⁻¹
- kon (human IgE [13]): 1.5e+06 M⁻¹ s⁻¹

Next, values leading:

- binding result [1]: binds
B1: human IgE (recombinant; variable region derived from an anti-human glypican3 antibody) (other)
heavy: QVQLVQSGAEVKKPGASVKVSCKASGYTFTDYEMHWVRQAPGQGLEWMGALDPKTGDTAYSQKFKGRVTLTADKSTSTAYMELSSLTSEDTAVYYCTRFYSYTYWGQGTLVTVSSASTQSPSVFPLTRCCKNIPSNATSVTLGCLATGYFPEPVMVTWDTGSLNGTTMTLPATTLTLSGHYATISLLTVSGAWAKQMFTCRVAHTPSSTDWVDNKTFSVCSRDFTPPTVKILQSSCDGGGHFPPTIQLLCLVSGYTPGTINITWLEDGQVMDVDLSTASTTQEGELASTQSELTLSQKHWLSDRTYTCQVTYQGHTFEDSTKKCADSNPRGVSAYLSRPSPFDLFIRKSPTITCLVVDLAPSKGTVNLTWSRASGKPVNHSTRKEEKQRNGTLTVTSTLPVGTRDWIEGETYQCRVTHPHLPRALMRSTTKTSGPRAAPEVYAFATPEWPGSRDKRTLACLIQNFMPEDISVQWLHNEVQLPDARHSTTQPRKTKGSGFFVFSRLEVTRAEWEQKDEFICRAVHEAASPSQTVQRAVSVNPGK
light: DVVMTQSPLSLPVTPGEPASISCRSSQSLVHSNRNTYLHWYLQKPGQSPQLLIYKVSNRFSGVPDRFSGSGSGTDFTLKISRVEAEDVGVYYCSQNTHVPPTFGQGTKLEIKRTVAAPSVFIFPPSDEQLKSGTASVVCLLNNFYPREAKVQWKVDNALQSGNSQESVTEQDSKDSTYSLSSTLTLSKADYEKHKVYACEVTHQGLSSPVTKSFNRGEC
notes: Used as antigen; also called hIgE

- Kd [3]: 240 nM
B3: Fv-4-F652 (antibody, human IgG1, kappa)
heavy: QVQLQESGPGLVKPSETLSLTCAVSGHSISHDHAWSWVRQPPGEGLEWIGFISYSGITNYNPSLQGRVTISRDNSKNTLYLQMNSLRAEDTAVYYCARSLARTTAMDYWGEGTLVTVSSASTKGPSVFPLAPSSKSTSGGTAALGCLVKDYFPEPVTVSWNSGALTSGVHTFPAVLQSSGLYSLSSVVTVPSSSLGTQTYICNVNHKPSNTKVDKKVEPKSCDKTHTCPPCPAPELLGGDSVFLFPPKPKDTLYISRTPEVTCVVVDVSHEDPEVKFNWYVDGVEVHNAKTKPREEQYNSTYRVVSVLTVLHQDWLNGKEYKCKVSNKALPAPIEKTISKAKGQPREPQVYTLPPSRDELTKNQVSLTCLVKGFYPSDIAVEWESNGQPENNYKTTPPVLDSDGSFFLYSKLTVDKSRWQQGNVFSCSVMHEALHYHYTQKSLSLSP
light: DIQMTQSPSSLSASVGDSVTITCQASTDISSHLNWYQQKPGKAPELLIYYGSHLLSGVPSRFSGSGSGTDFTFTISSLEAEDAATYYCGQGNRLPYTFGQGTKVEIERTVAAPSVFIFPPSDEQLKSGTASVVCLLNNFYPREAKVQWKVDNALQSGNSQESVTEQDSKDSTYSLSSTLTLSKADYEKHKVYACEVTHQGLSSPVTKSFNRGEC
notes: VH3-F652 (P238D/M252Y/N434Y) and VL3-CK

- Kd (soluble human FcRn [5]): 160 nM
- Kd (soluble human FcRn [6]): 71 nM
B5: Fv-4-LS (antibody, human IgG1, kappa)
heavy: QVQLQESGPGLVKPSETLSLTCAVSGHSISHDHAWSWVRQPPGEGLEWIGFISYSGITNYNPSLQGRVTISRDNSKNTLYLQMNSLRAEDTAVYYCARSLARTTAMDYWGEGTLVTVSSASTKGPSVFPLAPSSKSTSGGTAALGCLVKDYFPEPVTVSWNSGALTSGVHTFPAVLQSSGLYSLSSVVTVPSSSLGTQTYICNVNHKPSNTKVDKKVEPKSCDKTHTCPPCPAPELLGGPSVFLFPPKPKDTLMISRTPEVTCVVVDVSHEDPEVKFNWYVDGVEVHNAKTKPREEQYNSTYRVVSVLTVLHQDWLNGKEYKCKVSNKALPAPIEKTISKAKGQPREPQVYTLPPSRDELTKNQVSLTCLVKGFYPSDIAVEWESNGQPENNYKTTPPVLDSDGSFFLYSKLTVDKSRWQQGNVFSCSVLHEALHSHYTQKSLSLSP
light: DIQMTQSPSSLSASVGDSVTITCQASTDISSHLNWYQQKPGKAPELLIYYGSHLLSGVPSRFSGSGSGTDFTFTISSLEAEDAATYYCGQGNRLPYTFGQGTKVEIERTVAAPSVFIFPPSDEQLKSGTASVVCLLNNFYPREAKVQWKVDNALQSGNSQESVTEQDSKDSTYSLSSTLTLSKADYEKHKVYACEVTHQGLSSPVTKSFNRGEC
notes: also called F22

- Kd (soluble human FcRn [7]): 107 nM
- Kd (soluble human FcRn [8]): 110 nM
B7: Fv-4-F890 (antibody, human IgG1, kappa)
heavy: QVQLQESGPGLVKPSETLSLTCAVSGHSISHDHAWSWVRQPPGEGLEWIGFISYSGITNYNPSLQGRVTISRDNSKNTLYLQMNSLRAEDTAVYYCARSLARTTAMDYWGEGTLVTVSSASTKGPSVFPLAPSSKSTSGGTAALGCLVKDYFPEPVTVSWNSGALTSGVHTFPAVLQSSGLYSLSSVVTVPSSSLGTQTYICNVNHKPSNTKVDKKVEPKSCDKTHTCPPCPAPELLGGPSVFLFPPKPKDTLYISRTPEVTCVVVDVSHEDPEVKFNWYVDGVEVHNAKTKPREEQYNSTYRVVSVLTVLHQDWLNGKEYKCKVSNKALPAPIEKTISKAKGQPREPQVYTLPPSRDELTKNQVSLTCLVKGFYPSDIAVEWESNGQPENNYKTTPPVLDSDGSFFLYSKLTVDKSRWQQGNVFSCSVMHEALHYHVTQKSLSLSP
light: DIQMTQSPSSLSASVGDSVTITCQASTDISSHLNWYQQKPGKAPELLIYYGSHLLSGVPSRFSGSGSGTDFTFTISSLEAEDAATYYCGQGNRLPYTFGQGTKVEIERTVAAPSVFIFPPSDEQLKSGTASVVCLLNNFYPREAKVQWKVDNALQSGNSQESVTEQDSKDSTYSLSSTLTLSKADYEKHKVYACEVTHQGLSSPVTKSFNRGEC
notes: M252Y/N434Y/Y436V (EU)
